Results as given in PMC3913756, “Mycobacterium tuberculosis Cyclophilin A Uses Novel Signal Sequence for Secretion and Mimics Eukaryotic Cyclophilins for Interaction with Host Protein Repertoire” (PLoS ONE, 2014).

Target: T1, His6-tagged M. tuberculosis PpiA (cyclophilin A) (Mycobacterium tuberculosis H37Rv, UniProt P9WHW3 1-182)
T1 construct: also called Rv0009; MTBPPIA
Test: native gel or EMSA
Settings: both partners purified

B1: purified M. tuberculosis Ef-Tu (Tuf) (natural protein)
chain: not shown
Does B1 bind?
Result: binds
